According to patent US20140348834A1 (published 2014):
Numbering of substitutions follows the chain as printed. Read-outs that look alike come from different tables or passages of the source.

How the values were obtained:
[1] = biological target: T1, human IL-17A (human, UniProt Q16552 24-155); test: cell-based or functional assay
T1 sequence (Q16552 24-155): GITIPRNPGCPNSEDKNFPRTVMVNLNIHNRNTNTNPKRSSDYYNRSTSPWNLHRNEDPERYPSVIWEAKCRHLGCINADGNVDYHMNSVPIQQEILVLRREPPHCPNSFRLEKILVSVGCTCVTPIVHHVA

[2] = biological target: T1, human IL-17A; test: SPR (Biacore 3000), antibody captured by anti-Fc, antigen in solution
Protocol: (§1) The binding of antibodies to purified recombinant human, cyno, rat, mouse, rabbit IL-17 and human IL-17A/F were determined by surface plasmon resonance-based measurements with a Biacore® 3000 instrument (Biacore® AB, Uppsala, Sweden) using running HBS-EP (10 mM HEPES [pH 7.4], 150 mM NaCl, 3 mM EDTA, and 0.005% surfactant P20) at 25° C. […] Approximately 5000 RU of goat anti-mouse or anti-human IgG (Fcγ) fragment specific polyclonal antibody (Pierce Biotechnology Inc, Rockford, Ill.) diluted in 10 mM sodium acetate (pH 4.5) was directly immobilized across a CM5 research grade biosensor chip using a standard amine coupling kit according to manufacturer's instructions and procedures at 25 μg/ml. Unreacted moieties on the biosensor surface were blocked with ethanolamine. Modified carboxymethyl dextran surface in flowcell 2 and 4 was used as a reaction surface. Unmodified carboxymethyl dextran without goat anti-mouse or anti-human IgG in flow cell 1 and 3 was used as the reference surface. For kinetic analysis, rate equations derived from the 1:1 Langmuir binding model were fitted simultaneously to association and dissociation phases of all eight injections (using global fit analysis) with the use of Biaevaluation 4.0.1 software. Purified antibodies were diluted in HEPES-buffered saline for capture across goat anti-mouse or anti-human IgG specific reaction surfaces. Antibodies to be captured as a ligand (25 μg/ml) were injected over reaction matrices at a flow rate of 5 μl/min. The association and dissociation rate constants, kon (unit M-1s-1) and koff (unit s-1) were determined under a continuous flow rate of 25 μl/min. Rate constants were derived by making kinetic binding measurements at ten different antigen concentrations ranging from 10 nM to 200 nM. The equilibrium dissociation constant (unit M) of the reaction between antibodies and recombinant purified IL-17 antigens was then calculated from the kinetic rate constants by the following formula: KD=koff/kon. Binding was recorded as a function of time and kinetic rate constants are calculated. In this assay, on-rates as fast as 10⁶ M⁻¹ s⁻¹ and off-rates as slow as 10⁻⁶ s⁻¹ can be measured.

[3] = biological target: T2, human IL-17A/F (human, UniProt Q16552 24-155; Q96PD4 31-163); test: as above
T2 construct: Recombinant; biotinylated in the ELISA; also called hIL-17A/F; HuIL-17A/F
T2 sequence (Q16552 24-155, chain 1 of 2): as the sequence (Q16552 24-155) above
T2 sequence (Q96PD4 31-163, chain 2 of 2): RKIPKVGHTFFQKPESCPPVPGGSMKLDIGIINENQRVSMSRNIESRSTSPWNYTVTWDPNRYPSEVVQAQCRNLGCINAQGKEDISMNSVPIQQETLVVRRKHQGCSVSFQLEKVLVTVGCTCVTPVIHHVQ
Protocol: as §1

[4] = biological target: T3, cynomolgus monkey IL-17A (cynomolgus monkey, UniProt A0A2K5TTB0 24-155); test: as above
T3 construct: biotinylated in the ELISA; also called cyno IL-17; Cyno IL-17A
T3 sequence (A0A2K5TTB0 entry or part of it): as the sequence (Q16552 24-155) above, with T3A, P8S, N34S, I77V, N78K, P104R counted along it
Protocol: as §1

[5] = biological target: T4, rat IL-17A (rat, UniProt Q61453 18-150, limits assumed); test: as above
T4 construct: Purified recombinant protein in SPR
T4 sequence (looked up): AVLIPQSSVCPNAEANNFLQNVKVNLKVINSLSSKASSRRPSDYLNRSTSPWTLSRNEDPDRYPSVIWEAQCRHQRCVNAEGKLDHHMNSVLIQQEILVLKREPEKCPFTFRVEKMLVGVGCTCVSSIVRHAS
Protocol: as §1

[6] = biological target: T5, mouse IL-17A (mouse, UniProt Q62386 26-158, limits assumed); test: as above
T5 construct: Purified recombinant protein in SPR; also called MuIL-17A; murine IL-17A
T5 sequence (looked up): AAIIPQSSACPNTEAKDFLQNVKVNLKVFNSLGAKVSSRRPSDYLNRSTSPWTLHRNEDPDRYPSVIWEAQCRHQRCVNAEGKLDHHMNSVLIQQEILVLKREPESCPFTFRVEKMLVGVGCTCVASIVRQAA
Protocol: as §1

[7] = biological target: T6, human IL-17A (human, UniProt Q16552 24-155); test: cell-based or functional assay; remark: listed apart in the source
T6 sequence (Q16552 24-155 limits assumed): as the sequence (Q16552 24-155) above

[8] = biological target: human IL-17A/F (human, UniProt Q16552 24-155; Q96PD4 31-163); test: cell-based or functional assay
Target sequence in this assay (Q16552 24-155 limits assumed, chain 1 of 2): as the sequence (Q16552 24-155) above
Target sequence in this assay (Q96PD4 31-163 limits assumed, chain 2 of 2): as the sequence (Q96PD4 31-163, chain 2 of 2) above

[9] = biological target: cynomolgous monkey (cyno) IL-17A (cynomolgus monkey, UniProt A0A2K5TTB0 24-155); test: cell-based or functional assay
Chain of cynomolgous monkey (cyno) IL-17A (A0A2K5TTB0 entry or part of it): as the sequence (Q16552 24-155) above, with T3A, P8S, N34S, I77V, N78K, P104R counted along it

[10] = biological target: T7, rat IL-17A (rat, UniProt Q61453 18-150, limits assumed); test: cell-based or functional assay
T7 sequence (looked up): T4 sequence (looked up)

[11] = biological target: T6, human IL-17A; test: ELISA, captured antibody, serially diluted biotin-IL-17 (Example 1.5.1)
Protocol: The following protocol is used to characterize the binding of IL-17 antibodies to human IL-17 by enzyme-linked immunosorbent assay (ELISA). […] 1. Coat ELISA plate with 50 μl per well of Goat anti Mouse IgG-Fc at 2 ug/ml, overnight at 4° C. […] 2. Wash plate 3×PBS/Tween. […] 3. Add 50 μl Mab diluted to 1 μg/ml in PBS/0.1% BSA to appropriate wells. Incubate 1 hr at room temperature (RT). […] 4. Wash plate 3× with PBS/Tween. […] 5. Add 50 μl of serial diluted biotin-IL17 (human IL-17, IL-17A/F, cyno IL-17) to appropriate wells. Incubate 1 hr at room temperature (RT). […] 6. Wash plate 3× with PBS/Tween. […] 7. […] Incubate 1 hr at RT. […] 8. Wash plate 3× with PBS/Tween. […] 9. […] 10. Stop reaction with 50 μl 2N H₂SO₄. […] Read absorbance at 450 nm.

[12] = biological target: T1, human IL-17A; test: hIL17A ELISA
[13] = biological target: T1, human IL-17A; test: cell-based or functional assay; remark: listed apart in the source
[14] = biological target: T3, cynomolgus monkey IL-17A; test: cell-based or functional assay
[15] = biological target: T1, human IL-17A; test: SPR (Biacore 3000), antibody captured by anti-Fc, antigen in solution; remark: listed apart in the source
Protocol: as §1

[16] = biological target: T2, human IL-17A/F; test: as above; remark: listed apart in the source
Protocol: as §1

[17] = biological target: T3, cynomolgus monkey IL-17A; test: as above; remark: listed apart in the source
Protocol: as §1

[18] = biological target: T4, rat IL-17A; test: as above; remark: listed apart in the source
Protocol: as §1

[19] = biological target: T5, mouse IL-17A; test: as above; remark: listed apart in the source
Protocol: as §1

[20] = biological target: T8, human IL-17A (human, UniProt Q16552 24-155); test: SPR Biacore, captured binder
T8 construct: Purified recombinant; biotinylated in the ELISA; also called HuIL-17A; Hu IL-17A
T8 sequence (Q16552 24-155 limits assumed): as the sequence (Q16552 24-155) above
Protocol: as §1

[21] = biological target: T9, human IL-17A/F (human, UniProt Q16552 24-155; Q96PD4 31-163); test: SPR Biacore, captured binder
T9 construct: Heterodimer of IL-17A and IL-17F, purified recombinant; also called HuIL-17A/F; Hu IL-17A/F
T9 sequence (Q16552 24-155 limits assumed, chain 1 of 2): as the sequence (Q16552 24-155) above
T9 sequence (Q96PD4 31-163 limits assumed, chain 2 of 2): as the sequence (Q96PD4 31-163, chain 2 of 2) above
Protocol: as §1

[22] = biological target: cyno IL-17A (cynomolgus monkey, UniProt A0A2K5TTB0 24-155); test: SPR Biacore, captured binder
Chain of cyno IL-17A (A0A2K5TTB0 entry or part of it): as the sequence (Q16552 24-155) above, with T3A, P8S, N34S, I77V, N78K, P104R counted along it
Protocol: as §1

[23] = biological target: T10, rat IL-17A (rat, UniProt Q61453 18-150, limits assumed); test: SPR Biacore, captured binder
T10 sequence (looked up): T4 sequence (looked up)
Protocol: as §1

[24] = biological target: T11, mouse IL-17A (mouse, UniProt Q62386 26-158, limits assumed); test: SPR Biacore, captured binder
T11 construct: also called MuIL-17A; murine IL17A HIS
T11 sequence (looked up): T5 sequence (looked up)
Protocol: as §1

[25] = biological target: T12, rabbit IL-17A (rabbit); test: SPR Biacore, captured binder
T12 construct: also called RabIL-17A
Protocol: as §1

B1: ML109-6C6 (antibody, V domains shown)
VH: QVQLQQSGAELVRPGASVKLSCKASGYTFSDYEIHWVKQTPVHGLAWIGVIHPGNGGTAYNQKFKDKATLTADKSSSTAYMELSSLTSEDSAVYYCERFLTYEGYFDYWGQGTTLTVSS
VL: SIVMTQTPKFLLVSAGDRVTITCKASQSVNNDVAWYQHKPGQSPKLLINYASNRYTGVPDRFTGSGYGTDFTFTISTVQAEDLAIYFCQQDYGSPYTFGGGTKLEIKR
notes: Hybridoma-derived murine mAb; also called 6C6.3B4
[1]
  Potency (pM), IL-17-driven IL-6 production in HS27 cells: 36 pM
[2]
  Kd: 0.0187 nM
  koff: 6.78e-05 s⁻¹
  kon: 3.63e+06 M⁻¹ s⁻¹
[3]
  Kd: 0.189 nM
  koff: 0.000366 s⁻¹
  kon: 1.94e+06 M⁻¹ s⁻¹
[4]
  Kd: 0.0425 nM
  koff: 0.000116 s⁻¹
  kon: 2.73e+06 M⁻¹ s⁻¹
[5]
  Kd: 0.142 nM
  koff: 0.000704 s⁻¹
  kon: 4.95e+06 M⁻¹ s⁻¹
[6]
  Kd: 0.357 nM
  koff: 0.00087 s⁻¹
  kon: 2.44e+06 M⁻¹ s⁻¹

B2: ML109-10F7 (antibody, V domains shown)
VH: QVQLQQSGAELVRPGTSVTLSCKASGYIFTDYEIHWVKQTPVHGLEWIGVNDPESGGTFYNQKFDGKAELTADKSSSTAYMELRSLTSEDSGVYYCTRYYRYESFYGMDYWGQGTSITVSS
VL: QIVLTQSPAIMSASPGEKVTMTCSASSSISYIYWFQQKPGTSPKRWIYATFELASGVPARFSGSGSGTSYSLTISSMEAEDAATYYCHQRSSYPWTFGGGSKLEIKR
notes: Hybridoma-derived murine mAb; also called 10F7.3D1
[1]
  Potency (pM), IL-17-driven IL-6 production in HS27 cells: 54 pM
[2]
  Kd: 0.0626 nM
  koff: 0.000159 s⁻¹
  kon: 2.54e+06 M⁻¹ s⁻¹
[3]
  Kd: 0.673 nM
  koff: 0.000686 s⁻¹
  kon: 1.02e+06 M⁻¹ s⁻¹
[4]
  Kd: 0.0684 nM
  koff: 0.000145 s⁻¹
  kon: 2.12e+06 M⁻¹ s⁻¹
[5]
  Kd: 0.197 nM
  koff: 0.000623 s⁻¹
  kon: 3.17e+06 M⁻¹ s⁻¹
[6]
  Kd: 0.221 nM
  koff: 0.000354 s⁻¹
  kon: 1.6e+06 M⁻¹ s⁻¹

B3: IL17-B6-15 (antibody, V domains shown)
VH: EVQLVQSGAEVKKPGESLKISCKASGGSFSGYGTSWVRQAPGQGLEWMGGITHFFGAVDYAQKFQGRVTITADESTTTAYMELSGLTSDDTAVYYCARDPNEFWNGYYATHDFDYWGQGTTVTVSS
VL: EIVLTQSPDFQSVTPKEKVTITCRASQNIGAELHWYQQKPDQSPKLLIKYASHSISGVPSRFSGSGSGTDFTLTINGLEAEDAGTYYCHQTDRLPYSFGPGTKVDIK
notes: also called pJP245 B6.1 #15VH / pJP246 B6.1 #15Vk
[7]
  Potency (pM), IL-17-driven IL-6 production in HS27 cells: 24 pM
[8]
  Potency (pM), IL-17-driven IL-6 production in HS27 cells: 162 pM
[9]
  Potency (pM), IL-17-driven IL-6 production in HS27 cells: 10 pM
[10]
  Potency (pM), IL-17 and TNF-induced IL-6 secretion from NIH3T3 cells: 17 pM
[11]
  EC50: 0.13 nM

B4: IL17-h10F7.6 (antibody, V domains shown)
VH: EVQLVQSGAEVKKPGSSVKVSCKASGYTFTDYEIHWVRQAPGQGLEWIGVNDPESGGTFYNQKFDGRATLTADKSTSTAYMELSSLRSEDTAVYYCTRYYRYESFYGMDYWGQGTTVTVSS
VL: DIQLTQSPSSLSASVGDRVTITCSASSSISYIYWFQQKPGKSPKRWIYATFELASGVPSRFSGSGSGTDYTLTISSLQPEDFATYYCHQRSSYPWTFGQGTKLEIKR
notes: IgG; constant regions not specified; also called h10F7.6 (VH.1a-Vk.1a)
[12]
  EC50: 0.05 nM
[13]
  Potency (pM), IL-17-driven IL-6 production in HS27 cells: 264 pM
[14]
  Potency (pM), IL-17-driven IL-6 production in HS27 cells: 313 pM
[15]
  Kd: 0.302 nM
  koff: 0.000185 s⁻¹
  kon: 612000 M⁻¹ s⁻¹
[16]
  Kd: 1.14 nM
  koff: 0.000696 s⁻¹
  kon: 609000 M⁻¹ s⁻¹
[17]
  Kd: 0.217 nM
  koff: 0.000154 s⁻¹
  kon: 711000 M⁻¹ s⁻¹
[18]
  Kd: 0.919 nM
  koff: 0.000454 s⁻¹
  kon: 494000 M⁻¹ s⁻¹
[19]
  Kd: 0.98 nM
  koff: 0.000384 s⁻¹
  kon: 392000 M⁻¹ s⁻¹

B5: IL17-h10F7.11 (antibody, V domains shown)
VH: B4 VH
VL: EIVLTQSPDFQSVTPKEKVTITCSASSSISYIYWFQQKPDQSPKRWIYATFELASGVPSRFSGSGSGTDYTLTINSLEAEDAATYYCHQRSSYPWTFGQGTKLEIKR
notes: IgG; constant regions not specified; also called h10F7.11 (VH.1a-Vk.2a)
[12]
  EC50: 0.1 nM
[13]
  Potency (pM), IL-17-driven IL-6 production in HS27 cells: 326 pM
[14]
  Potency (pM), IL-17-driven IL-6 production in HS27 cells: 622 pM
[15]
  Kd: 0.524 nM
  koff: 0.000142 s⁻¹
  kon: 271000 M⁻¹ s⁻¹
[16]
  Kd: 2.11 nM
  koff: 0.00086 s⁻¹
  kon: 408000 M⁻¹ s⁻¹
[17]
  Kd: 0.773 nM
  koff: 0.000351 s⁻¹
  kon: 454000 M⁻¹ s⁻¹
[18]
  Kd: 3.77 nM
  koff: 0.000667 s⁻¹
  kon: 177000 M⁻¹ s⁻¹
[19]
  Kd: 2.21 nM
  koff: 0.000522 s⁻¹
  kon: 236000 M⁻¹ s⁻¹

B6: IL17-B6-11 (antibody, V domains shown)
VH: EVQLVQSGAEVKKPGSSVKVSCKASGGSFLSYGFSWVRQAPGQGLEWMGGITPFFGFADYAQKFQGRVTITADESTTTAYMELSGLTSDDTAVYYCAREPNDFWNGYYTTHHFDYWGQGTTVTVSS
VL: DVVMTQSPDFQSVTPKEKVTITCRASQNIGSALHWYQQKPDQSPKLLIKYASQSISGVPSRFSGSGSGTDFTLTINGLEAEDAGTYYCHQSTSLPHTFGQGTKLDIKR
[7]
  Potency (pM), IL-17-driven IL-6 production in HS27 cells: 20 pM
[8]
  Potency (pM), IL-17-driven IL-6 production in HS27 cells: 71 pM
[9]
  Potency (pM), IL-17-driven IL-6 production in HS27 cells: 33 pM
[10]
  Potency (pM), IL-17 and TNF-induced IL-6 secretion from NIH3T3 cells: 6100 pM
[11]
  EC50: 0.058 nM

B7: IL17-B6-17 (antibody, V domains shown)
VH: B6 VH with L30G, S31G, F34I, S35G, E99D, D102E, T109S, H112D, Y115S
VL: B3 VL with N28D, A31S, S43P, I55T, R93S, S97T
[20]
  Kd: 0.000785 nM
  koff: 3.1e-06 s⁻¹
  kon: 3.95e+06 M⁻¹ s⁻¹
[21]
  Kd: 0.0017 nM
  koff: 1.23e-05 s⁻¹
  kon: 7.23e+06 M⁻¹ s⁻¹
[22]
  Kd: 0.00103 nM
  koff: 1.05e-05 s⁻¹
  kon: 1.02e+07 M⁻¹ s⁻¹
[23]
  Kd: 0.00964 nM
  koff: 5.91e-05 s⁻¹
  kon: 6.13e+06 M⁻¹ s⁻¹
[24]
  Kd: 0.113 nM
  koff: 0.000169 s⁻¹
  kon: 1.49e+06 M⁻¹ s⁻¹
[25]
  Kd: 0.00351 nM
  koff: 3.36e-05 s⁻¹
  kon: 9.58e+06 M⁻¹ s⁻¹

B8: IL17-B6-5 (antibody, V domains shown)
VH: B3 VH with L18V, S30R, G31S, T34I, A57I, V58T, D99E, E102D, A109D, Y115S
VL: B3 VL with A31S, G84A, T91S, R93T, Y96H, S97T, P100Q
notes: also called pJP243 B6.1 #5VH / pJP244 B6.1 #5VK
[20]
  Kd: 0.00318 nM
  koff: 2.29e-05 s⁻¹
  kon: 7.2e+06 M⁻¹ s⁻¹
[21]
  Kd: 0.00222 nM
  koff: 2.95e-05 s⁻¹
  kon: 1.33e+07 M⁻¹ s⁻¹
[22]
  Kd: 0.00539 nM
  koff: 6.52e-05 s⁻¹
  kon: 1.21e+07 M⁻¹ s⁻¹
[23]
  Kd: 0.00905 nM
  koff: 5.54e-05 s⁻¹
  kon: 6.12e+06 M⁻¹ s⁻¹
[24]
  Kd: 0.0395 nM
  koff: 0.000102 s⁻¹
  kon: 2.58e+06 M⁻¹ s⁻¹
[25]
  Kd: 0.00317 nM
  koff: 2.23e-05 s⁻¹
  kon: 7.03e+06 M⁻¹ s⁻¹
